# Results as given in patent US20120264685A1 (priority 2009, published 2012).
# Where no end group is shown, it is not given here. [ ]: non-standard residue; d: D form. αMePhe(2,6-F2) = C[C@](N)(Cc1c(F)cccc1F)C(=O)O; αMePhe(2-F) = C[C@](N)(Cc1ccccc1F)C(=O)O; αMeBip(OMe) = alpha-methylated Bip(OMe); hhPhe = N[C@@H](CCCc1ccccc1)C(=O)O; αMeD = C[C@](N)(CC(=O)O)C(=O)O; αMeP = C[C@@]1(C(=O)O)CCCN1; αMeAPPA = not defined here; αMeS = C[C@](N)(CO)C(=O)O; Aib = CC(C)(N)C(=O)O
# B1: Seq. ID. No. 208 (peptide)
# peptide: VVH[αMeP]QGTFTSD[αMeBip(OMe)][hhPhe]
# modifications: not fully specified (C-terminus); printed as VVH-(αMe-Pro)-QGTFTSD-(αMe-Bip(OMe))-(APPA)
# B2: Seq. ID. No. 169 (peptide)
# peptide: VHSEGT[αMePhe(2-F)]T[αMeS]D[αMeBip(OMe)][αMeAPPA]
# modifications: not fully specified (C-terminus); printed as VHSEGT-(αMe-2FPhe)-T-(αMe-Ser)-D-(αMe-Bip(OMe))-(αMe-APPA); reading uncertain
# B3: Seq. ID. No. 189 (peptide)
# peptide: VHSQGT[αMePhe(2-F)]TS[αMeD][αMeBip(OMe)][αMeAPPA]
# modifications: not fully specified (C-terminus); printed as VHSQGT-(αMe-2FPhe)-TS-(αMe-Asp)-(αMe-Bip(OMe))-(αMe-APPA); reading uncertain
# Target: human glucagon receptor (human, UniProt P47871 26-477)
# Assay: cell-based or functional assay
# Chain of human glucagon receptor (P47871 26-477): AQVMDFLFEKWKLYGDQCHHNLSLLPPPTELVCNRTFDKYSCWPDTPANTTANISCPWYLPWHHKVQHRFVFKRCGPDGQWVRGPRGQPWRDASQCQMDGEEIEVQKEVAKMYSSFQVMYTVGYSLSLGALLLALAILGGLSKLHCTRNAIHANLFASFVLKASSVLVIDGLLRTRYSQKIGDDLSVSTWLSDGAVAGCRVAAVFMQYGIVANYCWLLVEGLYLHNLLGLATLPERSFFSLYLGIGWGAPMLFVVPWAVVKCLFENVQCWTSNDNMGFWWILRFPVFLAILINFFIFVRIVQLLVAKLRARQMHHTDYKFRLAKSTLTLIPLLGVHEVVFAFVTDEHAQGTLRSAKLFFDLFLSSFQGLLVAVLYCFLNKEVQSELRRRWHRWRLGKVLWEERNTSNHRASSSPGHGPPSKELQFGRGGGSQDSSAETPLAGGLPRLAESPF
"cAMP production (pmol/ml/µg prt) with saturated glucagon peptide, at 1 nM [pmol/ml/µg prt]","cAMP production (pmol/ml/µg prt) with saturated glucagon peptide, at 10 nM [pmol/ml/µg prt]","cAMP production (pmol/ml/µg prt) with saturated glucagon peptide, at 100 nM [pmol/ml/µg prt]","cAMP production (pmol/ml/µg prt) with saturated glucagon peptide, at 1 µM [pmol/ml/µg prt]","cAMP production (pmol/ml/µg prt) with saturated glucagon peptide, at 10 µM [pmol/ml/µg prt]",Binder
0,0,0,0,0,VVHSEGTFTSD[αMeBip(OMe)][hhPhe] (not fully specified (C-terminus); printed as VVHSEGTFTSD-(αMe-Bip(OMe))-(APPA)) [Seq. ID. No. 209]
9,6,5,3,0,"VH[αMeP]EGT[αMePhe(2,6-F2)]TS[αMeD][αMeBip(OMe)][αMeAPPA] (not fully specified (C-terminus); reading uncertain) [Seq. ID. No. 204]"
10,8,6,4,1,"VH[αMeP]QGT[αMePhe(2,6-F2)]TS[αMeD][αMeBip(OMe)][αMeAPPA] (not fully specified (C-terminus); reading uncertain) [Seq. ID. No. 200]"
4,2,0,0,0,B1
14,11,7,3,0,"VH[Aib]QGT[αMePhe(2,6-F2)]TS[αMeD][αMeBip(OMe)][αMeAPPA] (not fully specified (C-terminus); reading uncertain) [Seq. ID. No. 199]"
5,2,0,0,0,B2
4,2,0,0,0,B3
